Results on 3 molecules are retold here after publication PMC5042579 (Molecular Biology of the Cell, 2016).

Broadly, the Kd is the constant that tells how readily two partners part at equilibrium. Low values mean a tighter complex, high ones a looser complex.

The target of experiment [1] is T1, tau (human 1N4R-tau isoform, 412 amino acids) (human, UniProt P10636-7 1-412). Description: TIRF microscopy of reconstituted dynamic microtubules.
In experiment [2] the target is T1, tau (human 1N4R-tau isoform, 412 amino …). Put plainly: pull-down.
The target is the same in experiment [3]. Description: other fluorescence titration.

B1: GFP-EB1-Δ-tail (GFP-EB1 lacking the last 20 amino acid residues) (domain or fragment)
chain: MAVNVYSTSVTSDNLSRHDMLAWINESLQLNLTKIEQLCSGAAYCQFMDMLFPGSIALKKVKFQAKLEHEYIQNFKILQAGFKRMGVDKIIPVDKLVKGKFQDNFEFVQWFKKFFDANYDGKDYDPVAARQGQETAVAPSLVAPALNKPKKPLTSSSAAPQRPISTQRTAAAPKAGPGVVRKNPGVGNGDDEAAELMQQVNVLKLTVEDLEKERDFYFGKLRNIELICQENEGENDPVLQRIVDILYA
As to B1, in experiment [1], the binding result is on record as “binds”.

B2: biotinylated EB1 (mouse end-binding protein 1) (natural protein)
chain: MAVNVYSTSVTSDNLSRHDMLAWINESLQLNLTKIEQLCSGAAYCQFMDMLFPGSIALKKVKFQAKLEHEYIQNFKILQAGFKRMGVDKIIPVDKLVKGKFQDNFEFVQWFKKFFDANYDGKEYDPVAARQGQETAVAPSLVAPALSKPKKPLGSSTAAPQRPIATQRTTAAPKAGPGMVRKNPGVGNGDDEAAELMQQVKVLKLTVEDLEKERDFYFGKLRNIELICQENEGENDPVLQRIVDILYATDEGFVIPDEGGPQEEQEEY
modifications: biotin (EZ-Link NHS-Chromogenic Biotinylation Kit)
B2: in experiment [2], the binding result is recorded as “binds”.

B3: EB1 (mouse end-binding protein 1), not labelled (natural protein)
chain: MAVNVYSTSVTSDNLSRHDMLAWINESLQLNLTKIEQLCSGAAYCQFMDMLFPGSIALKKVKFQAKLEHEYIQNFKILQAGFKRMGVDKIIPVDKLVKGKFQDNFEFVQWFKKFFDANYDGKEYDPVAARQGQETAVAPSLVAPALSKPKKPLGSSTAAPQRPIATQRTTAAPKAGPGMVRKNPGVGNGDDEAAELMQQVKVLKLTVEDLEKERDFYFGKLRNIELICQENEGENDPVLQRIVDILYATDEGFVIPDEGGPQEEQEEY
Molecule B3 registered a Kd in experiment [3] of 1700 ± 1100 nM.
